Experimental data: PMC9620489, “Insights into the structure and function of the histidine kinase ComP from Bacillus amyloliquefaciens based on molecular modeling” (Bioscience Reports, 2022)

Target: T1, ComPS (residues 563-763 of the histidine kinase ComP from Bacillus amyloliquefaciens Q-426) (Bacillus amyloliquefaciens Q-426)
T1 construct: No removal of the 6xHis tag is described; The forward primer F-BaComPS has an NcoI site followed by AT, which may add Met-Asp before R563; also called BaComPS; truncated ComPS protein; source: E. coli BL21 (RIL), pPROEXHTa vector, purified (Ni-NTA)
Assay: MST; microscale thermophoresis of ComPS with ComA; labelled partner, buffer and temperature not told in the text shown (curve in Supplementary Figure S8)
Conditions: both partners purified

Kd: 78 µM
B1: response regulator ComA (natural protein)
chain: MKKILVIDDHPAVMEGTKTILETDTNLSVDCLSPDASEQFVLRHDFSAYDLILMDLNLGDDISGIELSKKILKENPLCKIIVYTGYEVEDYFEESIRAGLHGAISKTESKEKIMQYIYHVLNGQILVDFSYFKQLMTQQKTKTSSSPQSEQDRLTPRERHILQEVEKGLTNQEIADALHLSKRSIEYSLTSIFNKLNVGSRTEAVLIAKSDNVL
